Laboratory results: the DeepSol protein solubility set

assay: soluble on expression in E. coli; label from the status in PepcDB or PDB records

Sequence	soluble on expression in E. coli
MQPASAKWYDRRDYVFIEFCVEDSKDVNVNFEKSKLTFSCLGGSDNFKHLNEIDLFHCIDPNDSKHKRTDRSILCCLRKGESGQSWPRLTKERAKLNWLSVDFNNWKDWEDDSDEDMSNFDRFSEMMNNMGGDEDVDLPEVDGADDDSQDSDDEKMPDLE	not soluble
MQQFATLSLASLLMLGTFTAFAAENGDAPASGWHIDDSATKGASGQQGMFDGVRLTEQQRQQMRDLMHQSRQDKPAFNTEDVKAMHKLVTAETFDEAAVRAQITRMMSVQIERQIQMTRVRNQMYNLLTPAQKEILELKHKQRMKEMQQQISMFNQMVAPSSGTTNHTETDSPELEHHHHHH	soluble
MQQIFFKDPILGEVLFDQQTKWMYELVETEAFRRLRNIKQLGINFHFYPGGVHTRYSHSLGVYELLRRILNTPAFAPIDENKKQTVLVAGLLHDIGHAPHSHAFEIYFAKAPNFKKELFIHEEVTTLFVNSEPIKSILKANQIDPKLVAALIDENKELKPSNYWMRQLISSDLDADRMDYLLRDSYFTGTSHSLIDYQTIIKEMDCVKVKGIYEIFFKDKCLPLIENFLITRHHMYQSIYSDGRSISTELNLWFVFQRIKDLVDKNQFDFNGYKTLEQVCLPLLKNEHFDKKMLPAFVKLDDYVFQSFFVNLYQTTKDKILKKLLDSYLNSLKFEIKFYETKEQRDLDFEKQASKYKDAKYFITKFNNQFKGFYEGWSSHKNELKIKTMQNKHTNLSEISMLVKRSNELFFENALYKWANVFYRL	soluble
MQQLLISILEDLNNTSTDIIASAVISTDGLPMATMLPSHLNSDRVGAISATLLALGSRSVQELACGELEQVMIKGKSGYILLSQAGKDAVLVLVAKETGRLGLILLDAKRAARHIAEAI	not soluble
MQQNKCPDCEVELEWTGQYHCGQCESDFKKVGFCPDCGAELEKLQACGAANYFCNTCNELKSKSRVRFEFQKISLEHHHHHH	soluble
MQRLFRQKMIINSLGTSPTSVDTLVELTGASPATIRRDLTDLEGHGQLRKVHGGAVAVNLRGTPMPYSLRSAENAESKTAIAQLVSRLVTDDMSVIIDNGSTMVAVAQALQERPITALCLSLRAALPLGEGGVATVSTPDGTLMPESLRYAAASCLRALGEFRADVAIVGTCSASPAMGLTVTTHQDAQVKRAILASSARVVLAATGDKLSRTSSFRFGDIEDIDDLVTTRDAPQVTLDAFRVAGSRVYVADLEHHHHHH	soluble
MQRNLSHIISQATSAPLLLEPAYARVFFCALGRESGINSLHIPGNNESLDQSDMALVTGDFMATGKPQARFYQVVNGIAVLPVTGTLVHKLGGMRPFSGMTGYDGVTARLQQAVSDPEVKGILLDIDSPGGQAAGAFDCADMIYRMREQKPVWALANETACSAAMLLAAACSHRLVTQTSRMGSIGVVMAHTSYAEKLKQEGIDITLIYSGAHKADLTPSQKLPESVYADYQQRMDEARKMFAEKVARYTGLSVDAVMATEAAVYDGQAIITTGLADGMVNAADAIGVMAEAINSNKTGGTMPELSAADAVTQENQRVMGILGCPEARGHEALAQMLAGQPGMSVAQAKSILAAAAPADTTSTADRILALEEAGGRETLAQTLAAMPEMTVEQARTILAASPIAAATSLHDAVMALDEAKGREELAEKLAVMPGMTTDQARDLLAAAPDKSGNAGLSMNNAFDAFMQSHSPGPISGGKGHSNDTETTLLMSIPGTSATLEHHHHHH	not soluble
MQSHTFTRSRGVPIYMNGSVSHQRLYDRLSEPSTSRQLPRSISLAPTGHHRTGSTRIDREQVDTSLPVTYIPRFHDESAVRRMNYRQIPGTDIRMSKIGFGAAAIGGMFGNVEDSIIKIVETAIKQGINYIDTGYWYSQSRSESILGKALSKIPRKAYYISTKVGRFELDYARTFDFRADKILESLTNSLKRLQLTYIDICYVQIHDADFAPNESIVLYETLQALEMAKSSGKIRHIGLTGYPLGKLVYSFRYVWNAPKLYFSVNLSITRNIAVINSGALCWGLLTEKGPPPWHPASDEIKEACLAATTYCSSKNISISKLALDYALNFPNVICCLVGMDSVQQVLDNLELSNFSRITDVEQRVRDRIMRRYLDRLENAGWEGVDVAQYWKKLKKLGLTALATHRHSSVESLASTLNGFSLYSSNSSSELRTPRRRRPF	not soluble
MQTISDNAANAIQEIFGRSKALIGMIHCPAFPGAPRYRNASMDAIYDACMRDAERLIEGGMHGLIVENHGDVPFSKPDDIGPETSAFMSVVTDRIVRTAGVPVGINVLANAPIPAFAIAKAGGAKFIRVNQWANAYVANEGFMEGRAAEAMRYRSLLRAEHIKVFADSHVKHGAHAITADRSIDELTRDLAFFDADGVIATGQRTGNSASLEEIEEIGAATHLPLLVGSGVNEGNIVEILKRTSGVIVASSLKEGGVWWNPVELARVRSFVAAARPGLEALEHHHHHH	soluble
MQTKNKQGVLLVNLGTPDEPTAPAVKRFLSQFLHDHRVVDMTRWLWCPILHGVILPIRSPKVAKLYESVWMEEGSPLMVYSKRQAKKLAQHLDMPVELGMTYGNPSLQSGFEALIAQGVEEVIVLPLYPQYSGTTTAAVSDGITKAFKQLPVMPAFSFIRDYHDHPMYIEALAHSVRQYWEEHGKGDYLLCSYHGIPKRYADNGDIYPQHCEATTRLLGEALGLSSDQIGMAYQSRFGREEWLQPYTDKTLETITSKGVKKIDIMTPAFSSDCLETLEEIAGENKEIFMEAGGEQFHYIPCLNDDDMHIDMMAELVRSKL	not soluble
MQTQARPPVPQGPRFNHPATPQQVRRPINAPLPGQTAQIQGNRGPQPPKKKKRYADKLIQPKVRELVPESQAYMDLLAFEQKLDSTITRKKIDVQEALKRPQKIKKRLRIYISHTFIAGKEPEKEGDDASVPMWELRVEGRLLDDMQHPTVGANPRPAPKRKFSSFFKSLVIELDKDIYGPDNHLVEWHRTPQTNETDGFQVKRPGDRPVKCTILLLLDYQPMKFKLHPRLAKVLGIAAETRPRIIEALWQYIKTHKLQDPQDRDTINNDLFLEQCFGVSKMRFMEIPQRLHQLLQQPDPLVLNHIIQRPDDGQDKTSACYDIDVELEDPVKQQMANFVHNQTNANDIQLLDQKIFDLVDQINEMKLRRDFFLRFSNEPSGFIKKWVVSQNSDLKTLTESSGDGESDRYATTYSTTDTDEGVSRYMYQKIQQKRAELEQSLGIRNN	not soluble
MQTVGSFSEFLDDMVGRYGPRPAIQYRPRYRTLRWSYLELGTHAAKLASLLDEHGVGSGDRVFLSAENSPHWVAAFFAIAARGAVIVPLNPRSPPEQLANLVRSAGPSLVLASPRRRWEGPPLPVVDIERSGRVPSNRPATRTGPARLAEIIYTSGTTGDPKGVMLTHANLLSDLSAVARAIPLAPDDHVLSLVPLFHVYGQMTSLFCPLAAGCPVSYLTTPTTRSVLEALTHTPVTHLVAVPEVLKTMMDRLESRIGRIPGFLWPLLRGRIRARISGSLRTIVCGGAPLDPVVEEKWWALGFQVLQGYGLTETSPVIAANTPQAHRIGSVGKPLDEVELRIASDGEILVKGPMVMAGYFRDPARTEAAFADGWLKTGDAGRLDADGFLYVYGRKRYMILGPGGENVFPEDIEAVLNRTAGVTDCAVVGLESGGRTLVHAVLLADADEARAAAIVAEANRHLAPHQRIVSWSLWPEPDFPRSVTRKVKKDEVLGRLRREPSTQAVPVGRSTPLRLLLAQVAGTEAGALSDDTRLVPDLGLDSLLRIELVARIEEDLGVCLDEIDIGPLTTVADLENLLVRRQDRMPRVDAHPRWSLSPWASRLRPLAQKVFLQWWIAPFCRLRVSGLEHLAALDGPVIFMANHRSYLDSAVASFALPDRFRYRLAIAAATGVLYTRYRWAVPIGELSLNAFPLPSGPDENIRPGLELIGRLLDDGWNVLIFPEGQMNRGGLGIQPLRRGAGTIGVDMGVPVVPLVIEGTEKVMPPGRIVPRAAAPVSVRFGAPLRAGEAEPHGRMLARIEDALRRLLENSPLEHHHHHH	not soluble
MQVLLLEDEPRLGQAVARALAAQGYGVRWARSLGEAREAFLELEPDLMVLDVRLPEDEDGGFRFAKEAREAGYKGPILFLTARDALEDRVQGLDLGGDDYLVKPFHLEELLARVRALLRRASEVKASRVRLGPLEVDLAGRGVYLAGRRVDLSLKEFALLETLLLHPGRVFAPEELAERVFGDPEKVGAVKVYVHYLRQKLFPEVVRTVPGGYRLGHEP	soluble
MQVTHKILKIPSKGYRKILSLLNEKGQARLIGGCVRDALLDLLHNKTNKEEFEGDTERRIAMYINVREDSSTGSTYKLPLEASYPRDRLEKGSCDIDIATNLTPSEVTNILSGAKIKTIPTGLKFGTITATLNNEKFEITTLRKDIECNGRHAKVIFTNDFAEDAARRDFTINALSYCPFKNEIYDYFEGFKDLQQEKVVFIGEALDRIKEDYLRILRFFRFSSYYANQLDDGNFKACKALKDGLKTLSRERIKSEMDKIIVSKRAAQILKAMFEIGILELIFSIQNYEIKFFEQANDFKLELVTRYALLLYCQKDLNLKVFLDWKFSKHEAMQILSITNFLNDAKFNMKKIWFEKKNYKEYLLAARIIGKLNHSQVKEFILKYDALLRPKFQVNGNDLLNMNIEKKKIGAKLEYLKNFWIEQDFKPSKLELLAKL	soluble
MQVTSAEYLSNEESIKKGGNILMEKYNEKYNESIDGNKTLYKSYYESRRESIKNYNPDAKYINEIESIYMMLGEIYPNAPDFMSPHFEGDCSEGE	not soluble
MQWQELYRQRVCSADEAVVDSLKPGTKVVFGHAAAAPVRFSQAMYRQREKLENITVFHMLYFGDAPHLAPEMRSHVHPTLNFLEGNSRPASRDRRVDFIPCHFHEVPELFRQGFFPLDVAVVQVSTPNEEGYCSFGVSCDYTKAAAECAPVVVAEVNKQMPFIGGENLIHISKLTHIIEVDEPIAEVLPPAISDLELRIGQNCASLIKDGDTLQLGIGGIPDAVLRALEGHKDLGIHTEMFTDGVMRMIRKGIINGKKKTLHPEKVVTSLIFGSKELYDFVNNNPVIECYPGDYINNPDVIGKNDRMVSINSCLEMDLMGQAASESIGYEQFSGSGGQVDFLRGAKRSKGGISIMAFPSTAKKGTESRIVPILKEGACVTTGRNEVDYVVTEYGVARLRGATLRQRAEALTAIAHPDFRPALEEEIRRRFELEHHHHHH	soluble
MQYKGQGFQPVAEKSAIAHAKKYREEYEKLGEQFFKDNFSLNVKATNVVGSGDGVEVYVHCDDHDIVFNASIPFDKEAIHEEGSMRSNDNGDTMSNMVGTVLSGFEYKAQKEKYDNLTKFFKDNEEKYQYTGFTKEAIHKTQNVGYQNEYYYLAGNVTNINNYRKYYEPLIKKDSKNFKEGMKKANEATNFKAKIEVVSTLFSTKSDFTKNNSKKDLLFLSDDLYHYKEKPENTNITLQLSEPKINSTRAFYDANNPLEYGVHKHELEHHHHHH	not soluble
MQYNPLGKTDLRVSRLCLGCMTFGEPDRGNHAWTLPEESSRPIIKRALEGGINFFDTANSYSDGSSEEIVGRALRDFARREDVVVATKVFHRVGDLPEGLSRAQILRSIDDSLRRLGMDYVDILQIHRWDYNTPIEETLEALNDVVKAGKARYIGASSMHASQFAQALELQKQHGWAQFVSMQDHYNLIYREEEREMLPLCYQEGVAVIPWSPLARGRLTRPWGETTARLVSDEVGKNLYKESDENDAQIAERLTGVSEELGATRAQVALAWLLSKPGIAAPIIGTSREEQLDELLNAVDITLKPEQIAELETPYKPHPVVGFK	soluble
MQYPINEMFQTLQGEGYFTGVPAIFIRLQGCPVGCAWCDTKHTWDKLSDREVSLFSILAKTKESDKWGAASSEDLLAVINRQGYTARHVVITGGEPCIHDLMPLTDLLEKSGFSCQIETSGTHEVRCTPNTWVTVSPKVNMRGGYDVLSQALERANEIKHPVGRVRDIEALDELLATLSDDKPRVIALQPISQKEDATRLCIETCIARNWRLSMQTHKYLNIA	not soluble
MQYVKIKDSIVEQIEAGMLSPRQKLPAERKLAESFDTTRVTLREALSLLEAEGRIYREDRRGWFISPEPLRYDPTQTLNFPNMAKAQNRVPKTELIAAKGTLANKQSARLLQLQPFSDVFRVDRVRYLEDRPVVYVTNYIRPEIFPNLLSFDLTNSLTDIYREHFGVVYQKTRYRISTSTLLGEVAQALRATSGTPAMVVERTNYNQHGELIDCDIEYWRHDAISIESVAELNQ	not soluble
